From patent US20160362495A1 (E R SQUIBB AND SONS L L C, published 2016)

Experiments:
[1] = target: T1, human PD-L1 expressed at the cell surface (human, UniProt Q9NZQ7 19-290); experiment: flow cytometry blocking assay: antibody titrated on IFN-gamma-treated ES-2 cells, then PD-1-hFc at 2 ug/mL, detected with biotinylated 26D5 and streptavidin-PE (FL2 GMFI)
T1 construct: whole, on cells; also called cell surface PD-L1; hPD-L1
Experimental: The blocking was compared to isotype control antibody.
ES-2 cells were induced overnight with 500 IU/mL of hIFN-γ to upregulate hPD-L1 cell surface expression. Induced cells were suspended in FACS buffer. […] Finally, bound 26D5 antibody was detected by addition of streptavidin-PE conjugate at 4° C. for 30 minutes, followed by two washes to remove unbound conjugate. Flow cytometric analysis was performed using a FACScalibur flow cytometer (Becton Dickinson, San lose, Calif.). The results are depicted in FIG. 46.

[2] = target: T1, human PD-L1 expressed at the cell …; experiment: flow cytometry titration on CHO cells transfected with human PD-L1, FITC-labeled anti-human IgG detection
From the text: Chinese hamster ovary (CHO) cell lines that express recombinant human PD-L1 at the cell surface were developed and used to determine the specificity of PD-L1 human monoclonal antibodies by flow cytometry. CHO cells were transfected with expression plasmids containing full length cDNA encoding transmembrane forms of PD-L1. […] The cells were washed and binding was detected with a FITC-labeled anti-human IgG Ab. Flow cytometric analyses were preformed using a FACScan flow cytometry (Becton Dickinson, San Jose, Calif.). The binding was compared to the parent CHO cell line. […] Binding was also tested using varying concentrations of anti-PD-L1 antibody.

[3] = target: T2, recombinant human PD-L1 fusion protein (human PD-L1 fused to an immunoglobulin Fc region) (human, UniProt Q9NZQ7 19-238); experiment: SPR (Biacore), PD-L1 fusion protein amine-coupled to CM5 chip, antibody flowed at 133 nM, 1:1 Langmuir fit
T2 construct: extracellular domain; also called PD-L1-Fc fusion protein; PD-L1-Ig; not shown: immunoglobulin Fc region
Experimental: Anti-PD-L1 antibodies were characterized for affinities and binding kinetics by Biacore analysis (Biacore AB, Uppsala, Sweden). […] The antigen-antibody association kinetics was followed for 1 minute and the dissociation kinetics was followed for 1 minute. The association and dissociation curves were fit to a 1:1 Langmuir binding model using BIAevaluation software (Biacore AB). To minimize the effects of avidity in the estimation of the binding constants, only the initial segment of data corresponding to association and dissociation phases were used for fitting.

[4] = target: T2, recombinant human PD-L1 fusion protein …; experiment: Biacore equilibrium binding, 37 C
[5] = target: T2, recombinant human PD-L1 fusion protein …; experiment: flow cytometry blocking assay: antibody titrated against FITC-labeled PD-L1-Fc binding to CHO cells expressing human PD-1
Experimental: Anti-PD-L1 human monoclonal antibodies were tested for the ability to block binding of the ligand PD-L1 to PD-1 expressed on transfected CHO cells by using a cell cytometry assay.
PD-1 expressing CHO cells were suspended in FACS buffer (PBS with 4% fetal calf serum). […] Flow cytometric analyses were performed using a FACScalibur flow cytometer (Becton Dickinson, San Jose, Calif.).

[6] = target: T2, recombinant human PD-L1 fusion protein …; experiment: Biacore equilibrium binding, 25 C
[7] = target: T2, recombinant human PD-L1 fusion protein …; experiment: ELISA on hPD-L1/Fc, HRP goat anti-human IgG (kappa chain-specific) detection
Experimental: Standard ELISA procedures were performed. The anti-PD-L1 human monoclonal antibodies were added at different concentrations. Goat-anti-human IgG (kappa chain-specific) polyclonal antibody conjugated with horseradish peroxidase (HRP) was used as secondary antibody.

[8] = target: T1, human PD-L1 expressed at the cell …; experiment: flow cytometry titration on IFN-gamma-treated ES-2 cells, anti-human kappa detection (sheet title), FL1 GMFI
[9] = target: T3, cynomolgus monkey PD-L1 expressed on the surface of activated T cells (cynomolgus monkey, UniProt G7PSE7 19-290); experiment: flow cytometry titration on activated cynomolgus PBMC, FITC anti-human kappa detection, FL1 GMFI
T3 construct: also called cynomolgus monkey cell surface PD-L1; stimulated cynomolgus PBMC
Experimental: (§1) Anti-PD-L1 antibodies were tested by flow cytometry for binding to activated human or cynomolgus monkey T cells expressing PD-L1 on their surface.
(§2) Human or monkey T cells were activated by anti-CD3 antibody to induce PD-L1 expression prior to binding with a human anti-PD-L1 monoclonal antibody. […] An isotype control antibody was used as a negative control. The cells were washed and binding was detected with a FITC-labeled antihuman Ig-kappa light chain Ab. Flow cytometric analyses were performed using a FACScalibur flow cytometer (Becton Dickinson, San Jose, Calif.).

[10] = target: T1, human PD-L1 expressed at the cell …; experiment: flow cytometry titration on stimulated human CD4+ T cells, FITC anti-human kappa detection, FL1 GMFI
Experimental: as §1, §2

T3 sequence (G7PSE7 entry or part of it limits assumed): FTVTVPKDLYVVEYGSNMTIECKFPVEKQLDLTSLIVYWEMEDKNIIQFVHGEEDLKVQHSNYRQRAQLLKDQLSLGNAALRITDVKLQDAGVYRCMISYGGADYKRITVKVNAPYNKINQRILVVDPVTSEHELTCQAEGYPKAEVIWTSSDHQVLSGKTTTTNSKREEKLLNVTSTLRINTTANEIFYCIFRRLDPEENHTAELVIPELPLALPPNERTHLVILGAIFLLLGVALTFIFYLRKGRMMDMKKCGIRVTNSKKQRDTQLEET
T1 sequence (Q9NZQ7 19-290): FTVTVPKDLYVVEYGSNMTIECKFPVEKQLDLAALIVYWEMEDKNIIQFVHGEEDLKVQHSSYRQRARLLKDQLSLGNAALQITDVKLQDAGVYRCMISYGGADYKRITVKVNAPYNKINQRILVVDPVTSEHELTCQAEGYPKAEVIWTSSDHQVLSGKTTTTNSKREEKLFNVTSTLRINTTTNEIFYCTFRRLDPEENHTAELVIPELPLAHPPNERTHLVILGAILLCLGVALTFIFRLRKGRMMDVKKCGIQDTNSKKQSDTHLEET
T2 sequence (Q9NZQ7 19-238): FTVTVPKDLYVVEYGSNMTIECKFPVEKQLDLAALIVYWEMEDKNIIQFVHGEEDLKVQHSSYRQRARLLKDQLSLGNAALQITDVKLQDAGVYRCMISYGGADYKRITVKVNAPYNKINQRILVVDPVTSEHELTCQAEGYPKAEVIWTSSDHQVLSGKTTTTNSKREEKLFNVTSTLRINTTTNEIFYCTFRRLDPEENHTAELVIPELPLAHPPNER

Row | Binder | IC50 [1] [pM] | EC50 (read off the curve) [2] [µg/mL] | Kd [3] [pM] | koff [3] [s⁻¹] | kon [3] [M⁻¹ s⁻¹] | Kd [4] [pM] | IC50 (read off the curve) [5] [µg/mL] | Kd [6] [pM] | EC50 (read off the curve) [7] [µg/mL] | EC50 [8] [pM] | EC50 [9] [pM] | EC50 [10] [pM]
1 | 3G10 human monoclonal antibody (antibody, V domains shown, Fully human IgG kappa antibody from a KM-mouse hybridoma; also called HuMAb 3G10) VH: QVQLVQSGAEVKKPGASVKVSCKASGYTFTDYGFSWVRQAPGQGLEWMGWITAYNGNTNYAQKLQGRVTMTTDTSTSTVYMELRSLRSDDTAVYYCARDYFYGMDVWGQGTTVTVSS VL: EIVLTQSPATLSLSPGERATLSCRASQSVSSYLVWYQQKPGQAPRLLIYDASNRATGIPARFSGSGSGTDFTLTISSLEPEDFAVYYCQQRSNWPRTFGQGTKVEIK | 470 | ~0.3 | 3390 |  |  |  |  |  | ~0.1 | 420 | 380 | 230
2 | 1B12 human monoclonal antibody (antibody, V domains shown, Fully human IgG kappa antibody from a KM-mouse hybridoma) VH: QVQLVQSGAEVKKPGSSVKVSCKTSGDTFSSYAISWVRQAPGQGLEWMGGIIPIFGRAHYAQKFQGRVTITADESTSTAYMELSSLRSEDTAVYFCARKFHFVSGSPFGMDVWGQGTTVTVSS VL: not shown | 210 |  |  |  |  | 1380 |  |  |  | 230 | 150 | 60
3 | 7H1 human monoclonal antibody (antibody, V domains shown, Fully human IgG kappa antibody from a KM-mouse hybridoma) VH: QVQLVQSGAEVKKPGSSVKVSCKTSGGTFSSYAISWVRQAPGQGLEWMGGIIPIFGKAHYAQKFQGRVTITADESTTTAYMELSSLRSEDTAVYYCARKYDYVSGSPFGMDVWGQGTTVTVSS VL: not shown |  |  |  |  |  | 2150 |  |  |  |  |  | 

Further lines, results first:

Row | IC50 [1] [pM] | EC50 (read off the curve) [2] [µg/mL] | Kd [3] [pM] | koff [3] [s⁻¹] | kon [3] [M⁻¹ s⁻¹] | Kd [4] [pM] | IC50 (read off the curve) [5] [µg/mL] | Kd [6] [pM] | EC50 (read off the curve) [7] [µg/mL] | EC50 [8] [pM] | EC50 [9] [pM] | EC50 [10] [pM] | Binder
4 | 290 | ~0.3 | 1450 | 0.000372 | 258000 | 2410 | ~3 | 570 | ~0.08 | 380 |  |  | 10A5 human monoclonal antibody (antibody, V domains shown, Fully human IgG kappa antibody from a KM-mouse hybridoma; also called HuMAb 10A5) VH: QVQLVQSGAEVKKPGASVKVSCKASGYTFTSYDVHWVRQAPGQRLEWMGWLHADTGITKFSQKFQGRVTITRDTSASTAYMELSSLRSEDTAVYYCARERIQLWFDYWGQGTLVTVSS VL: DIQMTQSPSSLSASVGDRVTITCRASQGISSWLAWYQQKPEKAPKSLIYAASSLQSGVPSRFSGSGSGTDFTLTISSLQPEDFATYYCQQYNSYPYTFGQGTKLEIK
5 |  |  |  |  |  | 5930 |  | 5480 |  |  |  |  | 10H10 human monoclonal antibody (antibody, V domains shown, Fully human IgG kappa antibody from a KM-mouse hybridoma) VH: EVQLVESGGGLVQPGRSLRLSCAVSGFTFDDYVVHWVRQAPGKGLEWVSGISGNSGNIGYADSVKGRFTISRDNAKNSLYLQMNSLRAEDTALYYCAVPFDYWGQGTLVTVSS VL: DIQMTQSPSSLSASVGDRVTITCRASQGISSWLAWYQQKPEKAPKSLIYAASSLQSGVPSRFSGSGSGTDFTLTISSLQPEDFATYYCQQYNSYPYTFGQGTKLEIK
6 |  |  |  |  |  |  |  |  |  |  | 100 |  | 12A4 human monoclonal antibody (antibody, V domains shown, Fully human IgG kappa antibody from a KM-mouse hybridoma; also called HuMAb 12A4) VH: QVQLVQSGAEVKKPGSSVKVSCKTSGDTFSTYAISWVRQAPGQGLEWMGGIIPIFGKAHYAQKFQGRVTITADESTSTAYMELSSLRSEDTAVYFCARKFHFVSGSPFGMDVWGQGTTVTVSS VL: not shown
